# Results: patent US20140087995A1 (published 2014)
# Numbered stars: 1 amine (or outer) side, 2 acyl side, 3 side chain; on linkers, the order of the positions; unused ones are H or OH. Bridge positions count the residues as written; N and C are the ends. Side chains are listed from the residue outwards. Ends that are not written are not given here. * marks the point of attachment. C20 diacid = O=C(O)CCCCCCCCCCCCCCCCCCC(=O)*; γGlu = O=C(O)[C@H](CCC(=O)[*:2])N[*:1]; AEEA = NCCOCCOCC(=O)O
# T1: human amylin receptor (amylin 3(a) receptor: human calcitonin receptor plus RAMP-3) (human, UniProt P30988 25-474; O60896 24-148)
# T1 sequence (looked up) 1: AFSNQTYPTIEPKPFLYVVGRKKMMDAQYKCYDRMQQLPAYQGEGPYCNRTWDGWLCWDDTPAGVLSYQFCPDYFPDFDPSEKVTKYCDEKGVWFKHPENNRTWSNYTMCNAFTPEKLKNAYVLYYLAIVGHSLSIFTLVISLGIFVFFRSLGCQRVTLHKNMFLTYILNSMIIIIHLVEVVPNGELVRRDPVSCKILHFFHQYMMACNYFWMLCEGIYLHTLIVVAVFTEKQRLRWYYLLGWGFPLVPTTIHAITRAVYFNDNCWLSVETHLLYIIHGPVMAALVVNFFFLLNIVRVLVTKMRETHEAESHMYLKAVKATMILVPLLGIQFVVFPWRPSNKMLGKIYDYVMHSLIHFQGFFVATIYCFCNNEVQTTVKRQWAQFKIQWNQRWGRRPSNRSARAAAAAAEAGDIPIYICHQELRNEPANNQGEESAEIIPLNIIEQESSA
# T1 sequence (looked up) 2: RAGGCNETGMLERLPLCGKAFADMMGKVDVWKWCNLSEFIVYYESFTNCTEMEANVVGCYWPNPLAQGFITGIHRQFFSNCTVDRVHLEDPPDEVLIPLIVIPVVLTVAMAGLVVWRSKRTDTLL
# T2: human calcitonin receptor (human, UniProt P30988 25-474)
# T2 sequence (looked up): T1 sequence (looked up) 1
# B1: N^ε1-[2-[2-[2-[[2-[2-[2-[[(4S)-4-carboxy-4-(19-carboxynonadecanoylamino)butanoyl]amino]ethoxy]ethoxy]acetyl]amino]ethoxy]ethoxy]acetyl]-[Arg17,Pro21,Pro27,Glu35 … (peptide)
# peptide: K([AEEA-AEEA-γGlu-C20 diacid])CNTATCATQRLANFLRHSSPNFGAIPSSTNVGSETY-NH2
# modifications: disulfide 2-7; N-terminus assumed
# SMILES: CC[C@H](C)[C@H](NC(=O)[C@H](C)NC(=O)CNC(=O)[C@H](Cc1ccccc1)NC(=O)[C@H](CC(N)=O)NC(=O)[C@@H]1CCCN1C(=O)[C@H](CO)NC(=O)[C@H](CO)NC(=O)[C@H](Cc1c[nH]cn1)NC(=O)[C@H](CCCNC(=N)N)NC(=O)[C@H](CC(C)C)NC(=O)[C@H](Cc1ccccc1)NC(=O)[C@H](CC(N)=O)NC(=O)[C@H](C)NC(=O)[C@H](CC(C)C)NC(=O)[C@H](CCCNC(=N)N)NC(=O)[C@H](CCC(N)=O)NC(=O)[C@@H](NC(=O)[C@H](C)NC(=O)[C@@H]1CSSC[C@H](NC(=O)[C@@H](N)CCCCNC(=O)COCCOCCNC(=O)COCCOCCNC(=O)CC[C@H](NC(=O)CCCCCCCCCCCCCCCCCCC(=O)O)C(=O)O)C(=O)N[C@@H](CC(N)=O)C(=O)N[C@@H]([C@@H](C)O)C(=O)N[C@@H](C)C(=O)N[C@@H]([C@@H](C)O)C(=O)N1)[C@@H](C)O)C(=O)N1CCC[C@H]1C(=O)N[C@@H](CO)C(=O)N[C@@H](CO)C(=O)N[C@H](C(=O)N[C@@H](CC(N)=O)C(=O)N[C@H](C(=O)NCC(=O)N[C@@H](CO)C(=O)N[C@@H](CCC(=O)O)C(=O)N[C@H](C(=O)N[C@@H](Cc1ccc(O)cc1)C(N)=O)[C@@H](C)O)C(C)C)[C@@H](C)O
# notes: also called compound 25
# B2: N^ε1-[(4S)-4-carboxy-4-(19-carboxynonadecanoylamino)butanoyl]-[Arg17,Pro21,Pro27,Glu35]-h-amylin (peptide)
# peptide: K([γGlu-C20 diacid])CNTATCATQRLANFLRHSSPNFGAIPSSTNVGSETY-NH2
# modifications: disulfide 2-7; N-terminus assumed
# SMILES: CC[C@H](C)[C@H](NC(=O)[C@H](C)NC(=O)CNC(=O)[C@H](Cc1ccccc1)NC(=O)[C@H](CC(N)=O)NC(=O)[C@@H]1CCCN1C(=O)[C@H](CO)NC(=O)[C@H](CO)NC(=O)[C@H](Cc1c[nH]cn1)NC(=O)[C@H](CCCNC(=N)N)NC(=O)[C@H](CC(C)C)NC(=O)[C@H](Cc1ccccc1)NC(=O)[C@H](CC(N)=O)NC(=O)[C@H](C)NC(=O)[C@H](CC(C)C)NC(=O)[C@H](CCCNC(=N)N)NC(=O)[C@H](CCC(N)=O)NC(=O)[C@@H](NC(=O)[C@H](C)NC(=O)[C@@H]1CSSC[C@H](NC(=O)[C@@H](N)CCCCNC(=O)CC[C@H](NC(=O)CCCCCCCCCCCCCCCCCCC(=O)O)C(=O)O)C(=O)N[C@@H](CC(N)=O)C(=O)N[C@@H]([C@@H](C)O)C(=O)N[C@@H](C)C(=O)N[C@@H]([C@@H](C)O)C(=O)N1)[C@@H](C)O)C(=O)N1CCC[C@H]1C(=O)N[C@@H](CO)C(=O)N[C@@H](CO)C(=O)N[C@H](C(=O)N[C@@H](CC(N)=O)C(=O)N[C@H](C(=O)NCC(=O)N[C@@H](CO)C(=O)N[C@@H](CCC(=O)O)C(=O)N[C@H](C(=O)N[C@@H](Cc1ccc(O)cc1)C(N)=O)[C@@H](C)O)C(C)C)[C@@H](C)O
# notes: also called compound 27
# B3: N^ε1-[2-[2-[2-[[(4S)-4-carboxy-4-(19-carboxynonadecanoylamino)butanoyl]amino]ethoxy]ethoxy]acetyl]-[Arg17,Pro21,Pro27,Pro31,His35]-h-amylin (peptide)
# peptide: K([AEEA-γGlu-C20 diacid])CNTATCATQRLANFLRHSSPNFGAIPSSTPVGSHTY-NH2
# modifications: disulfide 2-7; N-terminus assumed
# SMILES: CC[C@H](C)[C@H](NC(=O)[C@H](C)NC(=O)CNC(=O)[C@H](Cc1ccccc1)NC(=O)[C@H](CC(N)=O)NC(=O)[C@@H]1CCCN1C(=O)[C@H](CO)NC(=O)[C@H](CO)NC(=O)[C@H](Cc1c[nH]cn1)NC(=O)[C@H](CCCNC(=N)N)NC(=O)[C@H](CC(C)C)NC(=O)[C@H](Cc1ccccc1)NC(=O)[C@H](CC(N)=O)NC(=O)[C@H](C)NC(=O)[C@H](CC(C)C)NC(=O)[C@H](CCCNC(=N)N)NC(=O)[C@H](CCC(N)=O)NC(=O)[C@@H](NC(=O)[C@H](C)NC(=O)[C@@H]1CSSC[C@H](NC(=O)[C@@H](N)CCCCNC(=O)COCCOCCNC(=O)CC[C@H](NC(=O)CCCCCCCCCCCCCCCCCCC(=O)O)C(=O)O)C(=O)N[C@@H](CC(N)=O)C(=O)N[C@@H]([C@@H](C)O)C(=O)N[C@@H](C)C(=O)N[C@@H]([C@@H](C)O)C(=O)N1)[C@@H](C)O)C(=O)N1CCC[C@H]1C(=O)N[C@@H](CO)C(=O)N[C@@H](CO)C(=O)N[C@H](C(=O)N1CCC[C@H]1C(=O)N[C@H](C(=O)NCC(=O)N[C@@H](CO)C(=O)N[C@@H](Cc1c[nH]cn1)C(=O)N[C@H](C(=O)N[C@@H](Cc1ccc(O)cc1)C(N)=O)[C@@H](C)O)C(C)C)[C@@H](C)O
# notes: also called compound 57
# B4: N^ε1-[2-[2-[2-[[(4S)-4-carboxy-4-(19-carboxynonadecanoylamino)butanoyl]amino]ethoxy]ethoxy]acetyl]-[Arg17,Pro21,Pro27,Glu35]-h-amylin (peptide)
# peptide: K([AEEA-γGlu-C20 diacid])CNTATCATQRLANFLRHSSPNFGAIPSSTNVGSETY-NH2
# modifications: disulfide 2-7; N-terminus assumed
# SMILES: CC[C@H](C)[C@H](NC(=O)[C@H](C)NC(=O)CNC(=O)[C@H](Cc1ccccc1)NC(=O)[C@H](CC(N)=O)NC(=O)[C@@H]1CCCN1C(=O)[C@H](CO)NC(=O)[C@H](CO)NC(=O)[C@H](Cc1c[nH]cn1)NC(=O)[C@H](CCCNC(=N)N)NC(=O)[C@H](CC(C)C)NC(=O)[C@H](Cc1ccccc1)NC(=O)[C@H](CC(N)=O)NC(=O)[C@H](C)NC(=O)[C@H](CC(C)C)NC(=O)[C@H](CCCNC(=N)N)NC(=O)[C@H](CCC(N)=O)NC(=O)[C@@H](NC(=O)[C@H](C)NC(=O)[C@@H]1CSSC[C@H](NC(=O)[C@@H](N)CCCCNC(=O)COCCOCCNC(=O)CC[C@H](NC(=O)CCCCCCCCCCCCCCCCCCC(=O)O)C(=O)O)C(=O)N[C@@H](CC(N)=O)C(=O)N[C@@H]([C@@H](C)O)C(=O)N[C@@H](C)C(=O)N[C@@H]([C@@H](C)O)C(=O)N1)[C@@H](C)O)C(=O)N1CCC[C@H]1C(=O)N[C@@H](CO)C(=O)N[C@@H](CO)C(=O)N[C@H](C(=O)N[C@@H](CC(N)=O)C(=O)N[C@H](C(=O)NCC(=O)N[C@@H](CO)C(=O)N[C@@H](CCC(=O)O)C(=O)N[C@H](C(=O)N[C@@H](Cc1ccc(O)cc1)C(N)=O)[C@@H](C)O)C(C)C)[C@@H](C)O
# notes: also called compound 26
# B5: N^ε1-[2-[2-[2-[[(4S)-4-carboxy-4-(19-carboxynonadecanoylamino)butanoyl]amino]ethoxy]ethoxy]acetyl]-[Arg17,Pro21,Pro27,Pro34,His35]-h-amylin (peptide)
# peptide: K([AEEA-γGlu-C20 diacid])CNTATCATQRLANFLRHSSPNFGAIPSSTNVGPHTY-NH2
# modifications: disulfide 2-7; N-terminus assumed
# SMILES: CC[C@H](C)[C@H](NC(=O)[C@H](C)NC(=O)CNC(=O)[C@H](Cc1ccccc1)NC(=O)[C@H](CC(N)=O)NC(=O)[C@@H]1CCCN1C(=O)[C@H](CO)NC(=O)[C@H](CO)NC(=O)[C@H](Cc1c[nH]cn1)NC(=O)[C@H](CCCNC(=N)N)NC(=O)[C@H](CC(C)C)NC(=O)[C@H](Cc1ccccc1)NC(=O)[C@H](CC(N)=O)NC(=O)[C@H](C)NC(=O)[C@H](CC(C)C)NC(=O)[C@H](CCCNC(=N)N)NC(=O)[C@H](CCC(N)=O)NC(=O)[C@@H](NC(=O)[C@H](C)NC(=O)[C@@H]1CSSC[C@H](NC(=O)[C@@H](N)CCCCNC(=O)COCCOCCNC(=O)CC[C@H](NC(=O)CCCCCCCCCCCCCCCCCCC(=O)O)C(=O)O)C(=O)N[C@@H](CC(N)=O)C(=O)N[C@@H]([C@@H](C)O)C(=O)N[C@@H](C)C(=O)N[C@@H]([C@@H](C)O)C(=O)N1)[C@@H](C)O)C(=O)N1CCC[C@H]1C(=O)N[C@@H](CO)C(=O)N[C@@H](CO)C(=O)N[C@H](C(=O)N[C@@H](CC(N)=O)C(=O)N[C@H](C(=O)NCC(=O)N1CCC[C@H]1C(=O)N[C@@H](Cc1c[nH]cn1)C(=O)N[C@H](C(=O)N[C@@H](Cc1ccc(O)cc1)C(N)=O)[C@@H](C)O)C(C)C)[C@@H](C)O
# notes: also called compound 58
# Biological target: T1, human amylin receptor (amylin 3(a) …)
# Assay: cell-based or functional assay
Binder,Ratio hCT/hAmylin funct.,hAmylin-R funct. EC50 (pM)
B1,46.2,217
B2,22.6,133
B3,35,89
B4,29.9,212
B5,21.9,47

# Biological target: T2, human calcitonin receptor
# Assay: cell-based or functional assay
row,Binder,hCTR funct. EC50 (pM)
1,B1,10000
2,B2,3000
3,B3,3120
4,B4,6340
5,B5,1030

# Biological target: T1, human amylin receptor (amylin 3(a) …)
# Assay: SPA competition binding, displacement of 125I-rat amylin, membranes of BHK amylin 3(a)/CRE-luc cells
# Procedure: The binding assay was performed using scintillation proximity assay (SPA) beads (RPNQ0001) from PerkinElmer and cell membranes from the Amylin 3(a)/CRE-luc cells (as described in Assay (II)) were used. Membranes were prepared in the following way; the cells were rinsed with PBS and incubated with Versene for approximately 5 min before harvesting. The cells were flushed with PBS and the cell-suspension was centrifuged for 5 min at 1000 rpm. Cells were homogenized (ultrathurrax) in a buffer containing 20 mM Na-HEPES and 10 mM EDTA (pH 7.4) and centrifuged at 20.000 rpm for 15 min. The resulting pellet was resuspended, homogenized and centrifuged (20.000 rpm, 15 min) in a buffer containing 20 mM Na-HEPES and 0.1 mM EDTA (pH 7.4, buffer 2). The resulting pellet was resuspended in buffer 2 and protein concentration was measured (BCA protein Assay, Pierce). The homogenate was kept cold during the whole procedure. The membranes were kept at −80° C. until use. The assay was performed in a 384 well Optiplate (PerkinElmer) in a total volume of 40 ul. Membranes were mixed with SPA beads. Final concentration of membranes 35 ng/μL final and SPA beads was 0.05 mg/well. Test-compounds were dissolved in DMSO and further diluted in assay buffer (50 mM Hepes, pH 7.4, 1 mM CaCl2, 5 mM MgCl₂, 0.1% OA and 0.02% Tween20). […] The final mixture was incubated with shaking at 400 rpm for 120 min at 25° C. prior to centrifugation (1500 rpm, 10 min). Samples were analyzed on TopCounter™ (Packard). The IC₅₀ was calculated using (one site binding competition analysis) GraphPad Prism5 as a measure of receptor affinity.
row,Binder,IC50 [nM]
1,B1,0.768
2,B2,0.837
3,B3,0.115
4,B4,0.532
5,B5,0.088
